From publication PMC2856262 come the findings set out here.

Read-outs that look alike come from different tables or passages of the source.

For assay [1], the target named is Recombinant rat mannose-binding lectin (MBL), wild-type (rat) (UniProt P19999). Kind of assay: SPR. Background: In SPR one partner is held on a chip, and binding of the other changes the refractive index at the surface.
Assay [2] addresses SPA-KLP (SP-A with Glu63 to Lys, Cys64 to Leu and Glu66 to Pro). Kind of assay: SPR.
The target of assay [3] is SPA-KLPOdel (SPA-KLPO with the kink sequence PCPP removed). Put plainly: SPR.
Assay [4] has as its target Rat MBL, double-deletion mutant (two Gly-Xaa-Yaa triplets removed from the collagenous domain) (rat) (UniProt P19999). Put plainly: SPR.
The target in assay [5] is Rat MBL, deletion mutant (one Gly-Xaa-Yaa triplet removed from the collagenous domain) (rat) (UniProt P19999). Kind of assay: SPR.
The target of assay [6] is SPA-KLPO (SPA-KLP with Lys67 replaced by hydroxyproline). Kind of assay: SPR.
Assay [7] concerns the target Rat MBL, insertion mutant (a single Gly-Pro-Hyp inserted near the kink-like region) (rat) (UniProt P19999). Put plainly: SPR.
The target of assay [8] is SPA-KLPOS (SPA-KLPO with the cysteine of the kink replaced by serine). Kind of assay: SPR.
The target in assay [9] is Rat MBL, kink mutant (kink-like region removed by insertion of a proline residue) (rat) (UniProt P19999). Put plainly: SPR.
Assay [10] deals with SPA-KL (SP-A with Glu63 to Lys and Cys64 to Leu). Kind of assay: SPR.
The target of assay [11] is Recombinant rat mannose-binding lectin (MBL), wild-type (rat) (UniProt P19999). Kind of assay: SPR. The source holds these as a separate data set.
Assay [12] deals with SPA-KLP (SP-A with Glu63 to Lys, Cys64 to Leu and Glu66 to Pro).
Assay [13] addresses SPA-KLPOdel (SPA-KLPO with the kink sequence PCPP removed).
The target in assay [14] is SPA-KLPO (SPA-KLP with Lys67 replaced by hydroxyproline).
The target of assay [15] is SPA-KLPOS (SPA-KLPO with the cysteine of the kink replaced by serine).

On to “MASP-2A (rat MBL-associated serine protease-2, catalytically inactive, Ser613 to Ala) (enzyme)”, for which the KD, complex 2 in assay [1] is 165 nM; in assay [2] it was 104 nM; in assay [3] it was 114 nM; in assay [4], 195 nM; in assay [5], 175 nM; in assay [6], 232 nM. Moreover, the KD, complex 2 in [7] was 199 nM; in assay [8], 203 nM; in [9], 136 nM; in assay [10] it was 2120 nM; in [11] it was 166 nM. Moreover, the koff, complex 2 in [1] worked out at 0.00475 s⁻¹; in [2], 0.0176 s⁻¹; in [3], 0.021 s⁻¹; in assay [5], 0.0054 s⁻¹; in assay [6], 0.022 s⁻¹; in assay [8], 0.037 s⁻¹. Besides, the kon, complex 1 in [2] worked out at 54000 M⁻¹ s⁻¹; in [3], 53000 M⁻¹ s⁻¹; in [6], 26000 M⁻¹ s⁻¹; in [8], 45000 M⁻¹ s⁻¹. The figures for the kon, complex 2 in [2], in [6] and in assay [8] were 360000 M⁻¹ s⁻¹, 96000 M⁻¹ s⁻¹ and 210000 M⁻¹ s⁻¹, respectively. In addition, the KD, complex 1 in assay [3] was 29 nM; in [6], 97 nM; in [7] it was 4.9 nM; in assay [8], 99 nM; in assay [11] it was 3.8 nM. The koff, complex 1 in assay [3] amounted to 0.0017 s⁻¹; in assay [5] it was 0.0038 s⁻¹; in assay [6], 0.0025 s⁻¹; in assay [8], 0.0046 s⁻¹; in assay [9] it was 0.0062 s⁻¹.
With “MASP-2K (rat MBL-associated serine protease-2, catalytically active, Arg424 to Lys) (enzyme)”, the Half-time for MASP-2K activation, fucose-Sepharose as target in assay [12] was determined as 270 min; in assay [13], 316 min; in [14], 256 min; in assay [15] it was 166 min.
